From PMC3470543, “Effects of the Missense Mutations in Canine BRCA2 on BRC Repeat 3 Functions and Comparative Analyses between Canine and Human BRC Repeat 3” (PLoS ONE, 2012)
Residue numbers refer to the chain shown, from its start.

B1: Gal4-DBD-fused wild-type canine BRC3 [canine] / VP16 transactivation domain-fused human RAD51 [human] (parent complex)
chain 1: GQNIKDFDTFYLSFQTASRKNIRVSKESLNKARSLLNQKWTEEELNNFSDSLNSELLPGIDIKKTDISNHEVI
chain 2: MAMQMQLEANADTSVEEESFGPQPISRLEQCGINANDVKKLEEAGFHTVEAVAYAPKKELINIKGISEAKADKILAEAAKLVPMGFTTATEFHQRRSEIIQITTGSKELDKLLQGGIETGSITEMFGEFRTGKTQICHTLAVTCQLPIDRGGGEGKAMYIDTEGTFRPERLLAVAERYGLSGSDVLDNVAYARAFNTDHQTQLLYQASAMMVESRYALLIVDSATALYRTDYSGRGELSARQMHLARFLRMLLRLADEFGVAVVITNQVVAQVDGAAMFAADPKKPIGGNIIAHASTTRLYLRKGRGETRICKIYDSPCLPEAEAMFAINADGVGDAKD
B2: Gal4-DBD-fused wild-type canine BRC3 [canine] / VP16 transactivation domain-fused canine RAD51 [canine] (parent complex)
chain 1: B1 chain 1
chain 2: B1 chain 2 with N62S, A76T, A194G

Variants of: B1
Assay: mammalian two-hybrid assay; HeLa cells; luciferase activity determined 48 h after transfection; n = 3; read off a plot

Variant | response [Firefly/Renilla]
chain 1 T16P | ~2.2
chain 1 K26R | ~34

Variants of: B2
Assay: as above

Variant | response [Firefly/Renilla]
chain 1 T16P | ~3.5
chain 1 K26R | ~120
